# Data published in patent US12031137B2, “Compositions comprising SASP modulators and senescence attenuators and uses thereof for modulating cellular senescence” (RSEM, LIMITED PARTNERSHIP, priority 2016, dated 2024).
# B1: Trap X: NRP1 trap a1a2-b1-c, aa about 22-430 and 584-856, Y297A; SEQ ID NOs 89/90 (protein)
# chain: FRNDKCGDTIKIESPGYLTSPGYPHSYHPSEKCEWLIQAPDPYQRIMINFNPHFDLEDRDCKYDYVEVFDGENENGHFRGKFCGKIAPPPVVSSGPFLFIKFVSDYETHGAGFSIRYELFKRGPECSQNYTTPSGVIKSPGFPEKYPNSLECTYIVFAPKMSEIILEFESFDLEPDSNPPGGMFCRYDRLEIWDGFPDVGPHIGRYCGQKTPGRIRSSSGILSMVFYTDSAIAKEGFSANYSVLQSSVSEDFKCMEALGMESGEIHSDQITASSQASTNWSAERSRLNYPENGWTPGEDSYREWIQVDLGLLRFVTAVGTQGAISKETKKKYYVKTYKIDVSSNGEDWITIKEGNKPVLFQGNTNPTDVVVAVFPKPLITRFVRIKPATWETGISMRFEVYGCKITDYPEVEAPTAGPTTPNGNLVDECDDDQANCHSGTGDDFQLTGGTTVLATEKPTVIDSTIQSEFPTYGFNCEFGWGSHKTFCHWEHDNHVQLKWSVLTSKTGPIQDHTGDGNFIYSQADENQKGKVARLVSPVVYSQNSAHCMTFWYHMSGSHVGTLRVKLRYQKPEEYDQLVWMAIGHQGDHWKEGRVLLHKSLKLYQVIFEGEIGKGNLGGIAVDDISINNHISQEDCAKPADLDKKNPEIKIDETGSTPGYEGEGEGDKNISRKPGNVLKTLDPRSGSKENLYFQG
# B2: Trap P: NRP1 trap a1a2-b1, aa about 22-424, Y297A; SEQ ID NOs 83/84 (protein)
# chain: FRNDKCGDTIKIESPGYLTSPGYPHSYHPSEKCEWLIQAPDPYQRIMINFNPHFDLEDRDCKYDYVEVFDGENENGHFRGKFCGKIAPPPVVSSGPFLFIKFVSDYETHGAGFSIRYELFKRGPECSQNYTTPSGVIKSPGFPEKYPNSLECTYIVFAPKMSEIILEFESFDLEPDSNPPGGMFCRYDRLEIWDGFPDVGPHIGRYCGQKTPGRIRSSSGILSMVFYTDSAIAKEGFSANYSVLQSSVSEDFKCMEALGMESGEIHSDQITASSQASTNWSAERSRLNYPENGWTPGEDSYREWIQVDLGLLRFVTAVGTQGAISKETKKKYYVKTYKIDVSSNGEDWITIKEGNKPVLFQGNTNPTDVVVAVFPKPLITRFVRIKPATWETGISMRFEVYGCRSGSKENLYFQG
# B3: Trap Y: NRP1 trap a1a2-c, aa about 22-274 and 584-856; SEQ ID NOs 91/92 (protein)
# chain: FRNDKCGDTIKIESPGYLTSPGYPHSYHPSEKCEWLIQAPDPYQRIMINFNPHFDLEDRDCKYDYVEVFDGENENGHFRGKFCGKIAPPPVVSSGPFLFIKFVSDYETHGAGFSIRYELFKRGPECSQNYTTPSGVIKSPGFPEKYPNSLECTYIVFAPKMSEIILEFESFDLEPDSNPPGGMFCRYDRLEIWDGFPDVGPHIGRYCGQKTPGRIRSSSGILSMVFYTDSAIAKEGFSANYSVLQSSVSEDFKEVEAPTAGPTTPNGNLVDECDDDQANCHSGTGDDFQLTGGTTVLATEKPTVIDSTIQSEFPTYGFNCEFGWGSHKTFCHWEHDNHVQLKWSVLTSKTGPIQDHTGDGNFIYSQADENQKGKVARLVSPVVYSQNSAHCMTFWYHMSGSHVGTLRVKLRYQKPEEYDQLVWMAIGHQGDHWKEGRVLLHKSLKLYQVIFEGEIGKGNLGGIAVDDISINNHISQEDCAKPADLDKKNPEIKIDETGSTPGYEGEGEGDKNISRKPGNVLKTLDPRSGSKENLYFQG
# B4: Trap AG: NRP1 trap a1a2b2, aa about 22-280, 431-583 and 631-700; SEQ ID NOs 57/58 (protein)
# chain: MERGLPLLCAVLALVLAPAGAFRNDKCGDTIKIESPGYLTSPGYPHSYHPSEKCEWLIQAPDPYQRIMINFNPHFDLEDRDCKYDYVEVFDGENENGHFRGKFCGKIAPPPVVSSGPFLFIKFVSDYETHGAGFSIRYELFKRGPECSQNYTTPSGVIKSPGFPEKYPNSLECTYIVFAPKMSEIILEFESFDLEPDSNPPGGMFCRYDRLEIWDGFPDVGPHIGRYCGQKTPGRIRSSSGILSMVFYTDSAIAKEGFSANYSVLQSSVSEDFKKITDYPCSGMLGMVSGLISDSQITSSNQGDRNWMPENIRLVTSRSGWALPPAPHSYINEWLQIDLGEEKIVRGIIIQGGKHRENKVFMRKFKIGYSNNGSDWKMIMDDSKRKAKSFEGNNNYDTPELRTFPALSTRFIRIYPERATHGGLGLRMELLGCRSGSKENLYFQG
# B5: Trap Q: NRP1 trap a1a2-b1b2, aa about 22-583, Y297A; SEQ ID NOs 79/80 (protein)
# chain: FRNDKCGDTIKIESPGYLTSPGYPHSYHPSEKCEWLIQAPDPYQRIMINFNPHFDLEDRDCKYDYVEVFDGENENGHFRGKFCGKIAPPPVVSSGPFLFIKFVSDYETHGAGFSIRYELFKRGPECSQNYTTPSGVIKSPGFPEKYPNSLECTYIVFAPKMSEIILEFESFDLEPDSNPPGGMFCRYDRLEIWDGFPDVGPHIGRYCGQKTPGRIRSSSGILSMVFYTDSAIAKEGFSANYSVLQSSVSEDFKCMEALGMESGEIHSDQITASSQASTNWSAERSRLNYPENGWTPGEDSYREWIQVDLGLLRFVTAVGTQGAISKETKKKYYVKTYKIDVSSNGEDWITIKEGNKPVLFQGNTNPTDVVVAVFPKPLITRFVRIKPATWETGISMRFEVYGCKITDYPCSGMLGMVSGLISDSQITSSNQGDRNWMPENIRLVTSRSGWALPPAPHSYINEWLQIDLGEEKIVRGIIIQGGKHRENKVFMRKFKIGYSNNGSDWKMIMDDSKRKAKSFEGNNNYDTPELRTFPALSTRFIRIYPERATHGGLGLRMELLGCRSGSKENLYFQG
# B6: Trap R: NRP1 trap a1a2-b1b2-c, aa about 22-856, Y297A; SEQ ID NOs 69/70 (protein)
# chain: FRNDKCGDTIKIESPGYLTSPGYPHSYHPSEKCEWLIQAPDPYQRIMINFNPHFDLEDRDCKYDYVEVFDGENENGHFRGKFCGKIAPPPVVSSGPFLFIKFVSDYETHGAGFSIRYELFKRGPECSQNYTTPSGVIKSPGFPEKYPNSLECTYIVFAPKMSEIILEFESFDLEPDSNPPGGMFCRYDRLEIWDGFPDVGPHIGRYCGQKTPGRIRSSSGILSMVFYTDSAIAKEGFSANYSVLQSSVSEDFKCMEALGMESGEIHSDQITASSQASTNWSAERSRLNYPENGWTPGEDSYREWIQVDLGLLRFVTAVGTQGAISKETKKKYYVKTYKIDVSSNGEDWITIKEGNKPVLFQGNTNPTDVVVAVFPKPLITRFVRIKPATWETGISMRFEVYGCKITDYPCSGMLGMVSGLISDSQITSSNQGDRNWMPENIRLVTSRSGWALPPAPHSYINEWLQIDLGEEKIVRGIIIQGGKHRENKVFMRKFKIGYSNNGSDWKMIMDDSKRKAKSFEGNNNYDTPELRTFPALSTRFIRIYPERATHGGLGLRMELLGCEVEAPTAGPTTPNGNLVDECDDDQANCHSGTGDDFQLTGGTTVLATEKPTVIDSTIQSEFPTYGFNCEFGWGSHKTFCHWEHDNHVQLKWSVLTSKTGPIQDHTGDGNFIYSQADENQKGKVARLVSPVVYSQNSAHCMTFWYHMSGSHVGTLRVKLRYQKPEEYDQLVWMAIGHQGDHWKEGRVLLHKSLKLYQVIFEGEIGKGNLGGIAVDDISINNHISQEDCAKPADLDKKNPEIKIDETGSTPGYEGEGEGDKNISRKPGNVLKTLDPRSGSKENLYFQG
# B7: Trap AF: NRP1 trap a1a2b2c, aa 1-280 and 431-856 incl. SP; SEQ ID NOs 55/56 (protein)
# chain: MERGLPLLCAVLALVLAPAGAFRNDKCGDTIKIESPGYLTSPGYPHSYHPSEKCEWLIQAPDPYQRIMINFNPHFDLEDRDCKYDYVEVFDGENENGHFRGKFCGKIAPPPVVSSGPFLFIKFVSDYETHGAGFSIRYELFKRGPECSQNYTTPSGVIKSPGFPEKYPNSLECTYIVFAPKMSEIILEFESFDLEPDSNPPGGMFCRYDRLEIWDGFPDVGPHIGRYCGQKTPGRIRSSSGILSMVFYTDSAIAKEGFSANYSVLQSSVSEDFKKITDYPCSGMLGMVSGLISDSQITSSNQGDRNWMPENIRLVTSRSGWALPPAPHSYINEWLQIDLGEEKIVRGIIIQGGKHRENKVFMRKFKIGYSNNGSDWKMIMDDSKRKAKSFEGNNNYDTPELRTFPALSTRFIRIYPERATHGGLGLRMELLGCEVEAPTAGPTTPNGNLVDECDDDQANCHSGTGDDFQLTGGTTVLATEKPTVIDSTIQSEFPTYGFNCEFGWGSHKTFCHWEHDNHVQLKWSVLTSKTGPIQDHTGDGNFIYSQADENQKGKVARLVSPVVYSQNSAHCMTFWYHMSGSHVGTLRVKLRYQKPEEYDQLVWMAIGHQGDHWKEGRVLLHKSLKLYQVIFEGEIGKGNLGGIAVDDISINNHISQEDCAKPADLDKKNPEIKIDETGSTPGYEGEGEGDKNISRKPGNVLKTLDPRSGSKENLYFQG
# Test system: SEMA3A-FC
# Assay: Sema 3A binding assay on plate-coated purified traps (saturation curves, KD)
# Conditions: Table 2, Yes/No
# Protocol: Sema 3A and AP-VEGF165 binding assays. Saturation curves for the determinations of KD of binding to SEMA 3A or VEGF165 were obtained as follow. Wells of high protein binding 96 well plates (Maxisorp, Nunc) were coated with purified traps diluted in PBS and blocked afterward with binding buffer (PBS containing 2% casein and 0.05% Tween 20). The SEMA3A-FC (R&D systems) or AP-VEGF165 ligands were diluted in binding buffer over an extensive range of concentrations and added to wells. Following an overnight incubation, wells were washed with PBS containing 0.05% tween. Bound SEMA3a-FC was detected using an HRP-linked anti-Human IgG (Biorad) and ECL substrate (Pierce). Alternatively, bound AP-VEGF165 was detected using CPD star substrate (Roche). The Chemiluminescent signal was acquired on a TECAN reader. Dissociation constant (KD) were determined by non-linear curve fitting using the Graph Pad prism software.
# The relative affinity of traps of the present invention to SEMA3A and VEGF has been assessed. Traps were prepared as described in Example 8.
row,Binding to SEMA3A,Molecule
1,Yes,Iso-b: Secreted NRP1 isoform-b/S12; 644 amino acids; a1a2-b1b2-c (in part); SEQ ID NO: 44
2,Yes,Iso-c: Secreted NRP1 isoform-c/Siv; 609 amino acids; a1a2-b1b2-c (in part); SEQ ID NO: 45
3,Yes,Iso-d: Secreted NRP1 isoform S11; 704 amino acids; a1a2-b1b2-c (in part); SEQ ID NO: 46
4,Yes,"Trap O: NRP1 trap a1a2-b1b2, aa about 22-583; SEQ ID NOs 77/78"
5,No,B1
6,No,B2
7,No,B3
8,Yes,B4
9,No,B5
10,Yes,B6
11,No,B7

# Same assay, conditions: traps coated on plate, overnight incubation
row,SEMA 3A-FC binding (dissociation constant),Molecule
1,No binding,B1
2,No binding,B2
3,No binding,B5
4,No binding,B7

# Same assay, conditions: traps coated on plate, overnight incubation; read-out: SEMA 3A-FC binding (dissociation constant)
row,Kd,Molecule
1,> 750 nM,B3
2,6.15 nM,B6
